Laboratory results reported in paper PMC12098869, “An mRNA-display derived cyclic peptide scaffold reveals the substrate binding interactions of an N-terminal cysteine oxidase” (Nature Communications, 2025).

Molecular target: T1, ADO-F256A, biotinylated (pQE80L-Navi-ADO) (human, UniProt Q96SZ5 1-270, F256A, biotin on the Avi tag)
T1 construct: Tag as in Dm1; source: E. coli Rosetta2(DE3), purified (Ni-NTA, SEC); not shown: Avi tag, N-terminal, kept; His6, N-terminal, kept
T1 sequence (looked up): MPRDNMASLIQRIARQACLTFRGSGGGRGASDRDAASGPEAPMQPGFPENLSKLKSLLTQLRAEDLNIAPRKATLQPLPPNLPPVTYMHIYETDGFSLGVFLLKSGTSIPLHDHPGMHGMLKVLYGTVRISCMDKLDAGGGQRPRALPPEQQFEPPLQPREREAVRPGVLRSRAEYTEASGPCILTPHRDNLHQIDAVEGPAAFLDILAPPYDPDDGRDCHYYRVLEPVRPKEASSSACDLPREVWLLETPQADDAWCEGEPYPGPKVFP
Assay: SPR; multi-cycle, equilibrium steady state affinity 1:1 binding model; biotinylated ADO or variant immobilised on a Biotin CAP chip (~2500-3000 RU), peptide injected; 4 °C; 20 mM HEPES pH 7.5, 500 mM NaCl, 10 mM DTT, 0.1% (v/v) tween-20; 50 μL/minute
Details: both partners purified
Outline: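 Biotinylated full-length human ADO (wild type or engineered forms) was made in E. coli with a His tag, then purified by nickel affinity and gel filtration. It was captured on a Biotin CAP chip at about 2500–3000 RU in a Biacore T200, and peptides were flowed over it. The run was at 4 °C in HEPES pH 7.5 buffer with 500 mM NaCl, DTT and tween-20, at 50 μL/minute. Kd came from a 1:1 steady-state fit of multi-cycle equilibrium responses.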

B1: IL32_(2-15), synthetic peptide corresponding to the methionine excised N-terminus of IL32, residues 2-15 (peptide, UniProt P24001 2-15, looked up)
peptide: CFPKVLSDDMKKLK
notes: Interleukin 32 (IL32), residues 2-15, N-terminal Cys; also called IL32 peptide; source: synthetic peptide
With B1 the Kd was 870 nM.
